Consider 17 molecules from patent US20190113512A1.

Changes are numbered by the printed parent chain. Where “and” joins values, the source holds several entries; their conditions need not be identical. Identical values can stand only once.

The chains are these.
B1: rcSso7d.Rv1656 (yeast-surface displayed) (designed binder)
chain: MATVKFTYQGEEKQVDISKIKWVRRYGQYIGFSYDEGGGAWGKGYVSEKDAPKELLQMLEKQ
B2: rcSso7d.H1BA.1 (designed binder)
chain: B1 chain with W22H, Y26W, G31I, S33A, W41Y, K43G, Y45W
B3: rcSso7d.H1BA.5 (designed binder)
chain: B1 chain with W22Y, S33I
B4: rcSso7d.H4.6 (designed binder)
chain: B1 chain with W22S, R24H, Y29K, G31Y, S33D, W41I, Y45H
B5: rcSso7d.H1BA.4 (designed binder)
chain: B1 chain with W22N, R24Y, Y26W, G31I, W41Y, K43W, Y45W
B6: rcSso7d.H6BA.2 (designed binder)
chain: B1 chain with R24Y, Y26W, G31I, S33A, W41A, Y45S
B7: rcSso7d.H6BA.1 (designed binder)
chain: B1 chain with R24Y, G31I, S33G, W41K, K43N
B8: rcSso7d.H4.3 (designed binder)
chain: MATVKFTYQGEEKQVDISKIKHVWRRGQNIYFRYDEGGGAWGAGAVSEKDAPKELLQMLEKQ
B9: rcSso7d.H4.5 (designed binder)
chain: B8 chain with H22G, W24Y, R26H, N29S, Y31W, A43W, A45I
B10: rcSso7d.H4.7 (designed binder)
chain: B8 chain with H22Y, R26H, N29H, Y31A, W41H, A43W, A45S
B11: rcSso7d.H4.8 (designed binder)
chain: B8 chain with H22D, R26H, N29H, Y31I, R33S, W41Y, A45H
B12: rcSso7d.H4.9 (designed binder)
chain: MATVKFTYQGEEKQVDISKIKYVKRIGQYISFNYDEGGGAHGHGIVSEKDAPKELLQMLEKQ
B13: rcSso7d.H7.1 (designed binder)
chain: MATVKFTYQGEEKQVDISKIKYVYRWGQRIWFRYDEGGGAIGRGRVSEKDAPKELLQMLEKQ
B14: rcSso7d.H1BA.6 (designed binder)
chain: B13 chain with Y22D, Y24W, R29W, W31D, R33I, I41D, R43W
B15: rcSso7d.H6BA.3 (designed binder)
chain: MATVKFTYQGEEKQVDISKIKRVIRAGQSIIFSYDEGGGAIGHGWVSEKDAPKELLQMLEKQ
B16: rcSso7d.H2BA.1 (designed binder)
chain: B15 chain with A26Y, S29A, I31A, S33A, I41R, H43Y
B17: rcSso7d.H4.4 (designed binder)
chain: MATVKFTYQGEEKQVDISKIKSVKRNGQSIDFDYDEGGGAAGEGKVSEKDAPKELLQMLEKQ

The first assay addresses fluorescent reagents used to detect binding activity.
On to B1, for which the Quadrant % Q1 worked out at 0.1%.

The target is the same in a further assay. The source holds these as a separate data set.
Take B1: the Secondary control signal is 0.6% and 2.3% and 0%.
For B2, the Secondary control signal turned out to be 6%.
As to B3, the Secondary control signal stood at 0.9%.
The same measure, in the same setting: to B4 belongs 0%; to B5, 0%; to B6, 7.3%.
As to B7, the Secondary control signal amounted to 1.5%.
Still for that read-out and setting: to B8 belongs 0%.
The same measure, in the same setting: to B9 belongs 0.6%; to B10, 0%; to B11, 0%.
Same read-out and setting: in the case of B12 it was 0%; in that of B13, 1.8%.
In the case of B14, the Secondary control signal worked out at 0.5%.
Still for that read-out and setting: in the case of B15 it was 1.7%; in that of B16, 3.2%.
Molecule B17 displayed a Secondary control signal of 0%.
